The text below walks through data of patent US20230012273A1 (Boehringer Ingelheim, published 2023).

Common to all, as to test: SPR, Ab captured, ECD-His analyte
Assay [1] concerns the target T1, cynomolgus SIRPβ1v3 extracellular domain + His-tag (XP_005568593) (cynomolgus monkey).
T1 construct: also called Cyno SIRPβ1v3; cynoSIRPβ1v3
T1 chain: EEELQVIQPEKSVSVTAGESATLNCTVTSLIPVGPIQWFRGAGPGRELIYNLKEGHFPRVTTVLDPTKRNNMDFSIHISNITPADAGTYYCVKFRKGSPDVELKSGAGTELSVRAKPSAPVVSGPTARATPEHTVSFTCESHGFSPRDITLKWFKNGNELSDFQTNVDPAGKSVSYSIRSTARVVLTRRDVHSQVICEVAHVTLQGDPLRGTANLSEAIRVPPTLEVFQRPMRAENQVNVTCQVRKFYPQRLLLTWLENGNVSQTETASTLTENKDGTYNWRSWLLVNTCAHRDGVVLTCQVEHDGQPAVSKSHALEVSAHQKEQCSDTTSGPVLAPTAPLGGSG
The protocol:
(§1) The binding affinity of anti-SIRPα antibodies to the various SIRPα analytes is determined by surface plasmon resonance (SPR) using a ProteOn XPR36 (Bio-Rad). The running buffer for this experiment and all dilutions (except where stated) are done in 1×HBS-EP+. […] The sensorchip is deactivated with 1M ethanolamine HCl for 420 sec at a flowrate of 10 μl/min.
(§2) The analyte is injected over the captured antibody for 300 sec at a flowrate of 30 μl/min. The dissociation is done for 600 sec. Two-fold serial dilutions of each SIRP protein (Extracellular Domain+His-Tag) are injected as analyte with the highest concentrations indicated in table 36 below.

In assay [2] the target is T2, cynomolgus SIRPα extracellular domain + His-tag (XP_015313155) (cynomolgus monkey).
T2 construct: also called CySIRPα XP_015313155; cynoSIRPα
T2 chain: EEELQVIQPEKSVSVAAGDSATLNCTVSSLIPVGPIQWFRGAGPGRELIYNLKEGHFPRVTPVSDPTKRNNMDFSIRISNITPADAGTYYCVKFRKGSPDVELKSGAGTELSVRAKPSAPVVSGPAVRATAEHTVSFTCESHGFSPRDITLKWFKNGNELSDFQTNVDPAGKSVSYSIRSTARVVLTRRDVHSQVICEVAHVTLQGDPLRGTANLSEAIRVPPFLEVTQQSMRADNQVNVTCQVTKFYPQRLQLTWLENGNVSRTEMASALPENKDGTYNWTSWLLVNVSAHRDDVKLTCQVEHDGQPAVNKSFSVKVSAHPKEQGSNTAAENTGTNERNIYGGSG
On the procedure: as §1, §2

Assay [3] has as its target T3, cynomolgus SIRPβ1 extracellular domain + His-tag (XP_005568598) (cynomolgus monkey).
T3 construct: also called Cyno SIRPβ1; cynoSIRPβ1
T3 chain: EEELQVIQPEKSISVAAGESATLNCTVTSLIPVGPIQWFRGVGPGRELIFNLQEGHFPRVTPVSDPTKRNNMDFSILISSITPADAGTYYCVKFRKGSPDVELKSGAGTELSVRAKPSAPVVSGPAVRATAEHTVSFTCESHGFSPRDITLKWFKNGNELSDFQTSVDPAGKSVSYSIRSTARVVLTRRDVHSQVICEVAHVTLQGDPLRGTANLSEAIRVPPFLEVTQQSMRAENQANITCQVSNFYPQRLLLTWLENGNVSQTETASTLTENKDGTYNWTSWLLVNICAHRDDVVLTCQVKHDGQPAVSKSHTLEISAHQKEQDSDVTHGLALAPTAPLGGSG
On the procedure:
as §1, §2

Assay [4] deals with T4, cynomolgus SIRPγ extracellular domain + His-tag (XP_005568591) (cynomolgus monkey, UniProt Q9P1W8 29-359 (human entry)).
T4 construct: also called Cyno SIRPγ; cynoSIRPγ
T4 chain: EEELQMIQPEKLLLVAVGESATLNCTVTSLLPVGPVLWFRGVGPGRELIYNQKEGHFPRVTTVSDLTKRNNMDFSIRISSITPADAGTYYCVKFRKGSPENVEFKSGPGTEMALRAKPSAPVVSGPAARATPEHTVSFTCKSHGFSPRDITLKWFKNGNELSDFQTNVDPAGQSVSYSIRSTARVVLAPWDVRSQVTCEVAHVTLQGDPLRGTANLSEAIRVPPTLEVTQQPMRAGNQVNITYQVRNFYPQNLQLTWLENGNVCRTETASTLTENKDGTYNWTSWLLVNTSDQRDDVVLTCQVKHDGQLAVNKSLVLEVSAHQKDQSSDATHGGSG
The protocol: as §1, §2

Assay [5] concerns the target T5, cynomolgus SIRPα extracellular domain + His-tag (EGM_02252) (cynomolgus monkey).
T5 construct: also called CySIRPα EGM_02252; cynoSIRPα
T5 chain: T2 chain with D19E, V27A, S28T, A42V, N51H, L52Q, V227F, T245M
On the procedure: as §1, §2

In assay [6] the target is T6, human SIRPβ1 extracellular domain + His-tag (NP_006056.2) (human, UniProt O00241 30-371).
T6 construct: also called hSIRPβ1; HuSIRPβ1
T6 sequence (O00241 other isoform, or with tags, fused parts or gaps): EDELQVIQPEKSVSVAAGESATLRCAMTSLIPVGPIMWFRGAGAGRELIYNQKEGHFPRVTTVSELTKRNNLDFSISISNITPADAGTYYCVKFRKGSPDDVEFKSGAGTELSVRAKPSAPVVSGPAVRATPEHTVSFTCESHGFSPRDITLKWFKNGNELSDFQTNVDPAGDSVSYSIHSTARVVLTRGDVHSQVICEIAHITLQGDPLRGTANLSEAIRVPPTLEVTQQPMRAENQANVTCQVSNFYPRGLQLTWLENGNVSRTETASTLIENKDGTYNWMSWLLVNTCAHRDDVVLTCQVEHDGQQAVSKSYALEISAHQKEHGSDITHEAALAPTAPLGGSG
On the procedure:
as §1, §2

The target of assay [7] is T7, human SIRPβL/SIRPβ1v3 extracellular domain + His-tag (NP_001129316.1) (human, UniProt Q5TFQ8 30-371).
T7 construct: also called hSIRPβ1v3; HuSIRPβ1v3
T7 sequence (Q5TFQ8 other isoform, or with tags, fused parts or gaps): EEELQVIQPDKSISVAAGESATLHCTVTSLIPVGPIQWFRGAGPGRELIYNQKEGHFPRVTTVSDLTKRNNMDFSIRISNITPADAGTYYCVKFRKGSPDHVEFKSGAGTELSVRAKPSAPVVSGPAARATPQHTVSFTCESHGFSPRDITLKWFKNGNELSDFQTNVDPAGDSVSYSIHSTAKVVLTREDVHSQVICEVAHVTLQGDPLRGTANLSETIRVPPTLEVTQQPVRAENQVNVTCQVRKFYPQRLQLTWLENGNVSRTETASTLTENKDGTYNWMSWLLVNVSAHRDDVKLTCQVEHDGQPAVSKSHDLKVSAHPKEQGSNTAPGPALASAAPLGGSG
On the procedure: as §1, §2

In assay [8] the target is T8, human SIRPγ extracellular domain + His-tag (NP_061026.2) (human, UniProt Q9P1W8 29-360).
T8 construct: also called hSIRPγ; HuSIRPγ
T8 sequence (Q9P1W8 29-360): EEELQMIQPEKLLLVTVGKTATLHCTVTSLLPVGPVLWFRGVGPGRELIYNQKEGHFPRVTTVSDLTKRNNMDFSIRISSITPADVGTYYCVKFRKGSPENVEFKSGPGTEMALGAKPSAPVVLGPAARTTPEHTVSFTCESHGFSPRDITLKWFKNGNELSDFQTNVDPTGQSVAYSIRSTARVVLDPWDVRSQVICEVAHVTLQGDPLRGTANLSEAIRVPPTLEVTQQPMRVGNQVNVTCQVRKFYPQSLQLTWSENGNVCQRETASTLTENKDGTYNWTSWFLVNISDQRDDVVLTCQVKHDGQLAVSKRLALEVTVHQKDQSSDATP
The protocol: as §1, §2

Substitutions are numbered along the chain they refer to.

B1: Antibody A9 (antibody, human IgG1, kappa, L234A L235A, V domains shown)
VH: EVQLVESGGGLVQPGGSLRLSCAASGFTLSSYDMHWVRQAPGKGLEWVSAIGTAGDTYYTGSVKGRFTISRENAKNSLYLQMNSLRADDTAVYYCVRGGVWDDAFDIWGQGTMVTVSS
VL: DIQMTQSPSSLSASVGDRVTITCRASQDINNYLAWFQQKPGKAPKSLIYTASSLHSGVPSKFSGSGSGTDFTLTISSLQPEDFATYYCQQYVSYPYTFGQGTKLEIKR
As for B1, the Kd (as a rule, the concentration at which binding is half-saturated) in assay [1] is 257 nM; in assay [2], 156 nM; in assay [5] it was 227 nM; in assay [6], 58.8 nM. Besides, the binding result in assay [3] is “no binding (tested: 1000 nM)”; in assay [4] it was “no binding (tested: 1000 nM)”; in assay [7] it was “no binding (tested: 100 nM)”; in assay [8], “no binding (tested: 1000 nM)”.

B2: Antibody A5 (antibody, human IgG1, kappa, L234A L235A, V domains shown)
VH: B1 VH with D88S
VL: B1 VL with D28G, L33A
B2: the Kd in assay [1] came to 465 nM; in assay [2], 347 nM; in assay [5], 533 nM; in assay [6], 64.2 nM. Further, the binding result is “no binding (tested: 1000 nM)” in assay [3], “no binding (tested: 1000 nM)” in assay [4], “no binding (tested: 100 nM)” in assay [7] and “no binding (tested: 1000 nM)” in assay [8].

B3: Antibody A14 (antibody, human IgG1, kappa, L234A L235A, V domains shown)
VH: B1 VH with D88S
VL: B1 VL
With B3, the Kd came out at 235 nM in assay [1], 153 nM in assay [2], 222 nM in assay [5] and 58.3 nM in assay [6]. The binding result is listed as “no binding (tested: 1000 nM)” in assay [3], “no binding (tested: 1000 nM)” in assay [4], “no binding (tested: 100 nM)” in assay [7] and “no binding (tested: 1000 nM)” in assay [8].

B4: Antibody A12 (antibody, human IgG1, kappa, L234A L235A, V domains shown)
VH: B1 VH with P41T, D88S
VL: B1 VL
Regarding B4, the Kd in assay [1] amounted to 279 nM; in assay [2], 182 nM; in assay [5], 249 nM; in assay [6], 64.4 nM. The binding result is “no binding (tested: 1000 nM)” in assay [3], “no binding (tested: 1000 nM)” in assay [4], “no binding (tested: 100 nM)” in assay [7] and “no binding (tested: 1000 nM)” in assay [8].

B5: Antibody A16 (antibody, human IgG1, kappa, L234A L235A, V domains shown)
VH: B1 VH with D88G
VL: B1 VL
Turning to B5, the Kd in assay [1] worked out at 225 nM; in assay [2] it was 151 nM; in assay [5], 225 nM; in assay [6], 62.7 nM. Also, the binding result in assay [3] is “no binding (tested: 1000 nM)”; in assay [4], “no binding (tested: 1000 nM)”; in assay [7], “no binding (tested: 100 nM)”; in assay [8], “no binding (tested: 1000 nM)”.

B6: Antibody A15 (antibody, human IgG1, kappa, L234A L235A, V domains shown)
VH: B1 VH with D88E
VL: B1 VL
As to B6, the Kd worked out at 232 nM in assay [1], 154 nM in assay [2], 223 nM in assay [5] and 58.8 nM in assay [6]. Moreover, the binding result in assay [3] was “no binding (tested: 1000 nM)”; in assay [4], “no binding (tested: 1000 nM)”; in assay [7], “no binding (tested: 100 nM)”; in assay [8] it was “no binding (tested: 1000 nM)”.

B7: Antibody A13 (antibody, human IgG1, kappa, L234A L235A, V domains shown)
VH: B1 VH with D88A
VL: B1 VL
Consider B7, for which the Kd worked out at 238 nM in assay [1], 160 nM in assay [2], 226 nM in assay [5] and 61 nM in assay [6]. In addition, the binding result is given as “no binding (tested: 1000 nM)” in assay [3], “no binding (tested: 1000 nM)” in assay [4], “no binding (tested: 100 nM)” in assay [7] and “no binding (tested: 1000 nM)” in assay [8].
